Laboratory results from patent US20200283521A1 (GRANULAR THERAPEUTICS, published 2020).

Legend:
human C-KIT-Fc [1] = biological target: T1, human C-KIT-Fc (human, UniProt P10721 26-524); assay: HTRF competition vs Tb-h37M IgG1
T1 construct: also called biotinylated human C-KIT-Fc; not shown: Fc part not described

[2] = biological target: T2, cynomolgus monkey C-KIT-Fc (cynomolgus monkey); assay: HTRF competition vs Tb-h37M IgG1
T2 construct: also called cyno C-KIT-Fc

hICAM-1-Fc = biological target: T3, hICAM-1-Fc (human, UniProt P05362); assay: direct ELISA on coated protein, IgG1
T3 construct: Fc fusion; member of the panel m9

hCMET-Fc = biological target: T4, hCMET-Fc (The natural ectodomain is cleaved by furin after residue 307 into disulfide-linked alpha and beta chains. It is given here as one continuous stretch.); assay: direct ELISA on coated protein, IgG1
T4 construct: member of the panel m9
T4 chain: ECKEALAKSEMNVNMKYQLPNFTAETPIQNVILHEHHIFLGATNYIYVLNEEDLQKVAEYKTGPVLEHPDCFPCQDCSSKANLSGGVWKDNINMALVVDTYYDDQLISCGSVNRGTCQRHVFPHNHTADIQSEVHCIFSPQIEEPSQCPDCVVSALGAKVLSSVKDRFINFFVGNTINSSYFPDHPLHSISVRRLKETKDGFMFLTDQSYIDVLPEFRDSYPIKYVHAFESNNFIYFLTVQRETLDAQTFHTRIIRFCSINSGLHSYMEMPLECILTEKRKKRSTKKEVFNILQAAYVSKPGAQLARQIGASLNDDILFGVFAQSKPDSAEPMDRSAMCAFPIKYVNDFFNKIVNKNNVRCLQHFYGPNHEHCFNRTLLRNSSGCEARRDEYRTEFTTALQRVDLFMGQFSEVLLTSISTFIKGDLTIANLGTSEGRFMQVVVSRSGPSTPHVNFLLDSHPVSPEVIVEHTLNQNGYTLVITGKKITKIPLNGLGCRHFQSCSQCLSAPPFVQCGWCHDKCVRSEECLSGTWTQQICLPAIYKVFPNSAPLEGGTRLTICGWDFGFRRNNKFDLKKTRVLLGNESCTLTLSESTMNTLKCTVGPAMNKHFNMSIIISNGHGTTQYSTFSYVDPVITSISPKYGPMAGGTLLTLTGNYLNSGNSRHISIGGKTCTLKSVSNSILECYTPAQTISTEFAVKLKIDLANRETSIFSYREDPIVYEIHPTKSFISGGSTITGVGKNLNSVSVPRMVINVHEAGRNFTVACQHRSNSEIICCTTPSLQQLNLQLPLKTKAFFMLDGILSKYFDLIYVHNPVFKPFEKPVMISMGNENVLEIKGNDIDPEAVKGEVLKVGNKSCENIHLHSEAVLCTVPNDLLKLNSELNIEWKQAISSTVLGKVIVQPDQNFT

hBAFFR-Fc = biological target: T5, hBAFFR-Fc (human, UniProt Q96RJ3); assay: direct ELISA on coated protein, IgG1
T5 construct: Fc fusion; member of the panel m9

hTWEAK-Fc = biological target: T6, hTWEAK-Fc (human, UniProt O43508); assay: direct ELISA on coated protein, IgG1
T6 construct: Fc fusion; member of the panel m9
T6 sequence (looked up): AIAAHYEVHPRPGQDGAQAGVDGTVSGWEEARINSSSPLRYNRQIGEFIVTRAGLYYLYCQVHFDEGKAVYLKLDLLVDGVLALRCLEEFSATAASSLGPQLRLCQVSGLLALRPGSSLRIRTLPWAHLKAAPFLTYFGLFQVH

hCD4 = biological target: T7, hCD4 (human, UniProt P01730); assay: direct ELISA on coated protein, IgG1
T7 construct: purified recombinant protein; member of the panel m9

h4-1BB-Fc = biological target: T8, h4-1BB-Fc; assay: direct ELISA on coated protein, IgG1
T8 construct: member of the panel m9

hOX40-Fc = biological target: T9, hOX40-Fc; assay: direct ELISA on coated protein, IgG1
T9 construct: member of the panel m9
T9 chain: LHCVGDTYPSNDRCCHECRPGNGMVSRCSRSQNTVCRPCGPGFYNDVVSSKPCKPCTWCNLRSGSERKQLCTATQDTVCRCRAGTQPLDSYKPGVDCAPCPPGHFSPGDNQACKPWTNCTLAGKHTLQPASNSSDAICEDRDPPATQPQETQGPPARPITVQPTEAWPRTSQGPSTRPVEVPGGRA

hVCAM-1 = biological target: T10, hVCAM-1 (human, UniProt P19320); assay: direct ELISA on coated protein, IgG1
T10 construct: purified recombinant protein; member of the panel m9
T10 sequence (looked up): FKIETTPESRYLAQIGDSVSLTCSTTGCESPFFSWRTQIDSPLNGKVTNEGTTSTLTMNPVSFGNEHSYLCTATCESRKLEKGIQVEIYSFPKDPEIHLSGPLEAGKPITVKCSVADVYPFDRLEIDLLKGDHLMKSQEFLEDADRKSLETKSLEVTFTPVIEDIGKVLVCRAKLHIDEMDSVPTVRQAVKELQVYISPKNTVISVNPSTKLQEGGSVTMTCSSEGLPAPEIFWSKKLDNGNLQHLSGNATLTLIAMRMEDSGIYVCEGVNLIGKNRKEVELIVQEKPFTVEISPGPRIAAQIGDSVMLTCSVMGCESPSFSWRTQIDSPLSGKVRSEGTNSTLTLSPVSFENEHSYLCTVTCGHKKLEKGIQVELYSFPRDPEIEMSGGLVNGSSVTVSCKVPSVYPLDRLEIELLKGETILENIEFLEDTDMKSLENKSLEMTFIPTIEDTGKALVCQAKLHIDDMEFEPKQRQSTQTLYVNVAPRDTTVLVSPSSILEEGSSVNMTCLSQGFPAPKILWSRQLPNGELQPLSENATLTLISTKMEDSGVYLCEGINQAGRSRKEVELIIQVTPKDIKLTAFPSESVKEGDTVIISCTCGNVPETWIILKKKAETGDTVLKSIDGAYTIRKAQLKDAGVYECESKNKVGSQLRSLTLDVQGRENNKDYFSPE

hVCAM-Fc = biological target: T11, hVCAM-Fc; assay: direct ELISA on coated protein, IgG1
T11 construct: member of the panel m9
T11 chain: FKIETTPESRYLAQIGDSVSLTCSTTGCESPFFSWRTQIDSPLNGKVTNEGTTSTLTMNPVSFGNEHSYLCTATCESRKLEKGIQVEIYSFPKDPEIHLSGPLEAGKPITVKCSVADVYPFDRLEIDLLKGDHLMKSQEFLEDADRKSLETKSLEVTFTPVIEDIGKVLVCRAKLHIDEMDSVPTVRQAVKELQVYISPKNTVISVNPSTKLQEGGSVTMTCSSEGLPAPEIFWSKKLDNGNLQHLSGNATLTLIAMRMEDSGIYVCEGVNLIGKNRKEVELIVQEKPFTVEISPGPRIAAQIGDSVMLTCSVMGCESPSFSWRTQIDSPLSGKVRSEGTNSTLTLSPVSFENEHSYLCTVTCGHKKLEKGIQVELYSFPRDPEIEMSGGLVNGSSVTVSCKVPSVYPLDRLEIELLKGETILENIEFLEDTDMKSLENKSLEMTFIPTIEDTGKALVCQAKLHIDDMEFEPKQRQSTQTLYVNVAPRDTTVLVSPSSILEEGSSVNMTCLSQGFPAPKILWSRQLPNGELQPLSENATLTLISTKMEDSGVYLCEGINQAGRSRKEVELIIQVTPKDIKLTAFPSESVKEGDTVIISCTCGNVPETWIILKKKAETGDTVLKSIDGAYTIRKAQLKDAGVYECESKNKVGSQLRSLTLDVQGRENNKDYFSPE

hDR6-Fc = biological target: T12, hDR6-Fc (human, UniProt O75509); assay: direct ELISA on coated protein, IgG1
T12 construct: Fc fusion; member of the panel m9
T12 sequence (looked up): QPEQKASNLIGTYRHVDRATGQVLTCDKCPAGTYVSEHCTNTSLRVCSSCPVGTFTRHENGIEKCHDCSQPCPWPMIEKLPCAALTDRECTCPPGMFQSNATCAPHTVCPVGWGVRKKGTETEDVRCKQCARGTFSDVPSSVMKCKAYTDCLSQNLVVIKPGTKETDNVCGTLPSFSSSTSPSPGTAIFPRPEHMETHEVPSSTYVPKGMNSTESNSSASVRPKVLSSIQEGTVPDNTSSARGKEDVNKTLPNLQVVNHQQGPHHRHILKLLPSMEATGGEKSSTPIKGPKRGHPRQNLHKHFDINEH

hLTBR-Fc = biological target: T13, hLTBR-Fc (human, UniProt P36941); assay: direct ELISA on coated protein, IgG1
T13 construct: Fc fusion; member of the panel m9

hDR3-Fc = biological target: T14, hDR3-Fc (human, UniProt Q93038); assay: direct ELISA on coated protein, IgG1
T14 construct: Fc fusion; member of the panel m9
T14 sequence (looked up): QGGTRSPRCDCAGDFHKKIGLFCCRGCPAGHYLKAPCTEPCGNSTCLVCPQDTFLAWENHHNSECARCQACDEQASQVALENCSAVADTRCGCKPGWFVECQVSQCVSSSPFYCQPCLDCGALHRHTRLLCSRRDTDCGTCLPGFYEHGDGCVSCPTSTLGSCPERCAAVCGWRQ

hEpCAM-Fc = biological target: T15, hEpCAM-Fc (human, UniProt P16422); assay: direct ELISA on coated protein, IgG1
T15 construct: Fc fusion; member of the panel m9
T15 sequence (looked up): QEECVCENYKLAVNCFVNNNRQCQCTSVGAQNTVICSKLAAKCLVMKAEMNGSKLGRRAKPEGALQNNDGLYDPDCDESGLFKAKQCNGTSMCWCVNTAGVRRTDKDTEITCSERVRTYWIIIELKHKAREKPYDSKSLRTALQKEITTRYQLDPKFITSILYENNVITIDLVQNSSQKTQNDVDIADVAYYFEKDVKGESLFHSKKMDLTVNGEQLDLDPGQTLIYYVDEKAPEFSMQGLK

human C-KIT-Fc [3] = biological target: T1, human C-KIT-Fc; assay: direct ELISA at 1 µg/ml
[4] = biological target: T2, cynomolgus monkey C-KIT-Fc; assay: direct ELISA at 1 µg/ml

T3 sequence (P05362 28-480 limits assumed): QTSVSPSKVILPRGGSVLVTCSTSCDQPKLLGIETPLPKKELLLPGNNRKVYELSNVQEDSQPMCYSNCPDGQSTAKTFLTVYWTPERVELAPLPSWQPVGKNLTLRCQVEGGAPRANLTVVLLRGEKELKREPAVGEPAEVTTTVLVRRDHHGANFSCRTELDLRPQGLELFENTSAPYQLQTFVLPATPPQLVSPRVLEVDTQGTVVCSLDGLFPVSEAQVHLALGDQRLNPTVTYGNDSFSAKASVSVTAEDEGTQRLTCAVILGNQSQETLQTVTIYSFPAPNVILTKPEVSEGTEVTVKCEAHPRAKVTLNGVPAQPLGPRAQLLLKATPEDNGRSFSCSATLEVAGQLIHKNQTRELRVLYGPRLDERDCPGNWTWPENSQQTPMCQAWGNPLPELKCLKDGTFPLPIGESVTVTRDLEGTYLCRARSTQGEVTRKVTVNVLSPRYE
T13 sequence (P36941 28-227 limits assumed): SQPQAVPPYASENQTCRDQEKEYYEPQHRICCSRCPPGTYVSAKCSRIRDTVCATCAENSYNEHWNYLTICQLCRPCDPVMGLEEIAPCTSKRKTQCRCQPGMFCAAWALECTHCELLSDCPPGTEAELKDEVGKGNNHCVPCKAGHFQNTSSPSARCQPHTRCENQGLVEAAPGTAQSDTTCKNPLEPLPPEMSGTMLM
T5 sequence (Q96RJ3 7-71 limits assumed): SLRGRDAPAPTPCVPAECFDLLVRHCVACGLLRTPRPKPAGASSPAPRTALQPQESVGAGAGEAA
T8 sequence (chain, as listed by the source limits assumed): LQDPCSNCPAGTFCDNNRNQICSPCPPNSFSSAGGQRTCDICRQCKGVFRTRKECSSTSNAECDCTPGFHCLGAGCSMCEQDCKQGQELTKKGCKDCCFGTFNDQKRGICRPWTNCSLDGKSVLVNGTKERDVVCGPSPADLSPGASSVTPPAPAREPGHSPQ

B1: E-C7 (antibody, IgG1, V domains shown)
VH: QVQLVQSGAEVKKPGASVKVSCKASGYTFTDYYMNWVRQAPGQGLEWMGRIYPGSGNTYYAQKFQGRVTMTRDTSTSTVYMELSSLRSEDTAVYYCARGVYYYDYWGQGTLVTVSS
VL: DIQMTQSPSSLSASVGDRVTITCRASQGIRTNLAWFQQKPGKAPKSLIYSASSLQSGVPSRFSGSGSGTDFTLTISSLQPEDFATYYCQQYNSYPRTFGGGTKVEIK
notes: IgG1; also called C-KIT-E-C7
IC50 (human C-KIT-Fc [1]): 0.028 µg/mL
IC50 [2]: 0.051 µg/mL
binding result (hICAM-1-Fc): no binding (tested: 1 µg/ml)
binding result (hCMET-Fc): no binding (tested: 1 µg/ml)
binding result (hBAFFR-Fc): no binding (tested: 1 µg/ml)
binding result (hTWEAK-Fc): no binding (tested: 1 µg/ml)
binding result (hCD4): no binding (tested: 1 µg/ml)
binding result (h4-1BB-Fc): no binding (tested: 1 µg/ml)
binding result (hOX40-Fc): no binding (tested: 1 µg/ml)
binding result (hVCAM-1): no binding (tested: 1 µg/ml)
binding result (hVCAM-Fc): no binding (tested: 1 µg/ml)
binding result (hDR6-Fc): no binding (tested: 1 µg/ml)
binding result (hLTBR-Fc): no binding (tested: 1 µg/ml)
binding result (hDR3-Fc): no binding (tested: 1 µg/ml)
binding result (hEpCAM-Fc): no binding (tested: 1 µg/ml)
OD450 nm (human C-KIT-Fc [3]): > 1.8 OD450 nm
OD450 nm [4]: > 2 OD450 nm
